The text below walks through data of the RNAGym collection of RNA variant scans (doi:10.1093/molbev/msab373).

Sequences and labels used below:
B1: Azoarcus group I ribozyme (parent)
chain: GUGCCUUGCGCCGGGAAACCACGCAAGGGAUGGUGUCAAAUUCGGCGAAACCUAAGCGCCCGCCCGGGCGUAUGGCAACGCCGAGCCAAGCUUCGGCGCCUGCGCCGAUGAAGGUGUAGAGACUAGACGGCACCCACCUAAGGCAAACGCUAUGGUGAAGGCAUAGUCCAGGGAGUGGCGAAAGUCACACAAACCGG

This series covers variants of B1. Nature of the series: reverse-splicing fitness (ratio to wild type); higher = more active; in vitro selection; Mg2+ level not given. The method, boiled down:
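An in vitro group I ribozyme library with randomized positions was T7-transcribed and gel-purified. In triplicate, 10 pmol RNA in EPPS pH 7.5 was reacted with 50 pmoles of a 30-nt RNA substrate for 1 h at 37 °C across several added MgCl2 levels (1–48 mM), then stopped with EDTA. Products were reverse transcribed from a substrate-complementary primer, PCR-amplified and sequenced (HiSeq 4000). Fitness is a variant's read proportion after selection over that before, normalised to wild type.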
In the case of GUGCCUUGCGCCGGGAAACCACGCAAGGGAUGGUGUCAAAUUCGGCGAAACCUAAGCGCCCGCCCGGGCGUAUGGCAACGCUGAGCCAAGCUUCGGCGCCUGCGCCGAUGAAGGUGUAGCGACUAGACGGCACCCACCUAAGGCUAACGGUAUGGUGAAGGCAUAGUCUAGGGAGAGGCGAAAGUCACACAAACCGG [C82U A120C A145U C150G C169U U176A], the reverse-splicing fitness is 0.00974.

For GUGCCUUGCGCCGGGAAACCACGCAAGGGAUGGUGUCAAAUUCGGCGAAACCUAAGCGCCCGCCCGGGCGUAUGGCAACGCUGAGCCAAGCUUCGGCGCCUGCGCCGAUGAAGGUGUAGCGACUAGACGGCACCCACCUAAGGCUAACGGUAUGGUGAAGGCAUAGUCUAGGGAGGGGCGAAAGUCACACAAACCGG [C82U A120C A145U C150G C169U U176G], the reverse-splicing fitness was found to be 0.00467.

Consider GUGCCUUGCGCCGGGAAACCACGCAAGGGAUGGUGUCAAAUUCGGCGAAACCUAAGCGCCCGCCCGGGCGUAUGGCAACGCUGAGCCAAGCUUCGGCGCCUGCGCCGAUGAAGGUGUAGCGACUAGACGGCACCCACCUAAGGCUAACGAUAUGGUGAAGGCAUAGUCUAGGGAGUGGCGAAAGUCACACAAACCGG [C82U A120C A145U C150A C169U], for which the reverse-splicing fitness was determined as 0.00769.

Take GUGCCUUGCGCCGGGAAACCACGCAAGGGAUGGUGUCAAAUUCGGCGAAACCUAAGCGCCCGCCCGGGCGUAUGGCAACGCUGAGCCAAGCUUCGGCGCCUGCGCCGAUGAAGGUGUAGCGACUAGACGGCACCCACCUAAGGCUAACGUUAUGGUGAAGGCAUAGUCAAGGGAGCGGCGAAAGUCACACAAACCGG [C82U A120C A145U C150U C169A U176C]: the reverse-splicing fitness came to 0.00582.

Turning to GUGCCUUGCGCCGGGAAACCACGCAAGGGAUGGUGUCAAAUUCGGCGAAACCUAAGCGCCCGCCCGGGCGUAUGGCAACGCUGAGCCAAGCUUCGGCGCCUGCGCCGAUGAAGGUGUAGCGACUAGACGGCACCCACCUAAGGCUAACGUUAUGGUGAAGGCAUAGUCAAGGGAGAGGCGAAAGUCACACAAACCGG [C82U A120C A145U C150U C169A U176A], the reverse-splicing fitness was found to be 0.0108.

In the case of GUGCCUUGCGCCGGGAAACCACGCAAGGGAUGGUGUCAAAUUCGGCGAAACCUAAGCGCCCGCCCGGGCGUAUGGCAACGCUGAGCCAAGCUUCGGCGCCUGCGCCGAUGAAGGUGUAGCGACUAGACGGCACCCACCUAAGGCUAACGUUAUGGUGAAGGCAUAGUCAAGGGAGGGGCGAAAGUCACACAAACCGG [C82U A120C A145U C150U C169A U176G], the reverse-splicing fitness amounted to 0.00423.

Regarding GUGCCUUGCGCCGGGAAACCACGCAAGGGAUGGUGUCAAAUUCGGCGAAACCUAAGCGCCCGCCCGGGCGUAUGGCAACGCUGAGCCAAGCUUCGGCGCCUGCGCCGAUGAAGGUGUAGCGACUAGACGGCACCCACCUAAGGCUAACGGUAUGGUGAAGGCAUAGUCAAGGGAGGGGCGAAAGUCACACAAACCGG [C82U A120C A145U C150G C169A U176G], the reverse-splicing fitness stood at 0.00423.

Regarding GUGCCUUGCGCCGGGAAACCACGCAAGGGAUGGUGUCAAAUUCGGCGAAACCUAAGCGCCCGCCCGGGCGUAUGGCAACGCUGAGCCAAGCUUCGGCGCCUGCGCCGAUGAAGGUGUAGCGACUAGACGGCACCCACCUAAGGCUAACGGUAUGGUGAAGGCAUAGUCAAGGGAGCGGCGAAAGUCACACAAACCGG [C82U A120C A145U C150G C169A U176C], the reverse-splicing fitness amounted to 0.00716.

Consider GUGCCUUGCGCCGGGAAACCACGCAAGGGAUGGUGUCAAAUUCGGCGAAACCUAAGCGCCCGCCCGGGCGUAUGGCAACGCUGAGCCAAGCUUCGGCGCCUGCGCCGAUGAAGGUGUAGCGACUAGACGGCACCCACCUAAGGCUAACGGUAUGGUGAAGGCAUAGUCAAGGGAGAGGCGAAAGUCACACAAACCGG [C82U A120C A145U C150G C169A U176A], for which the reverse-splicing fitness was determined as 0.00958.

Consider GUGCCUUGCGCCGGGAAACCACGCAAGGGAUGGUGUCAAAUUCGGCGAAACCUAAGCGCCCGCCCGGGCGUAUGGCAACGCUGAGCCAAGCUUCGGCGCCUGCGCCGAUGAAGGUGUAGCGACUAGACGGCACCCACCUAAGGCUAACGGUAUGGUGAAGGCAUAGUCCAGGGAGGGGCGAAAGUCACACAAACCGG [C82U A120C A145U C150G U176G], for which the reverse-splicing fitness was found to be 0.0036.

Consider GUGCCUUGCGCCGGGAAACCACGCAAGGGAUGGUGUCAAAUUCGGCGAAACCUAAGCGCCCGCCCGGGCGUAUGGCAACGCUGAGCCAAGCUUCGGCGCCUGCGCCGAUGAAGGUGUAGCGACUAGACGGCACCCACCUAAGGCUAACGGUAUGGUGAAGGCAUAGUCCAGGGAGAGGCGAAAGUCACACAAACCGG [C82U A120C A145U C150G U176A], for which the reverse-splicing fitness was 0.00757.

As to GUGCCUUGCGCCGGGAAACCACGCAAGGGAUGGUGUCAAAUUCGGCGAAACCUAAGCGCCCGCCCGGGCGUAUGGCAACGCUGAGCCAAGCUUCGGCGCCUGCGCCGAUGAAGGUGUAGCGACUAGACGGCACCCACCUAAGGCUAACGGUAUGGUGAAGGCAUAGUCCAGGGAGCGGCGAAAGUCACACAAACCGG [C82U A120C A145U C150G U176C], the reverse-splicing fitness is 0.0134.

Take GUGCCUUGCGCCGGGAAACCACGCAAGGGAUGGUGUCAAAUUCGGCGAAACCUAAGCGCCCGCCCGGGCGUAUGGCAACGCUGAGCCAAGCUUCGGCGCCUGCGCCGAUGAAGGUGUAGCGACUAGACGGCACCCACCUAAGGCUAACGGUAUGGUGAAGGCAUAGUCGAGGGAGAGGCGAAAGUCACACAAACCGG [C82U A120C A145U C150G C169G U176A]: the reverse-splicing fitness worked out at 0.00652.

On to GUGCCUUGCGCCGGGAAACCACGCAAGGGAUGGUGUCAAAUUCGGCGAAACCUAAGCGCCCGCCCGGGCGUAUGGCAACGCUGAGCCAAGCUUCGGCGCCUGCGCCGAUGAAGGUGUAGCGACUAGACGGCACCCACCUAAGGCUAACGGUAUGGUGAAGGCAUAGUCGAGGGAGGGGCGAAAGUCACACAAACCGG [C82U A120C A145U C150G C169G U176G], for which the reverse-splicing fitness is 0.00365.

As for GUGCCUUGCGCCGGGAAACCACGCAAGGGAUGGUGUCAAAUUCGGCGAAACCUAAGCGCCCGCCCGGGCGUAUGGCAACGCUGAGCCAAGCUUCGGCGCCUGCGCCGAUGAAGGUGUAGCGACUAGACGGCACCCACCUAAGGCUAACGGUAUGGUGAAGGCAUAGUCGAGGGAGCGGCGAAAGUCACACAAACCGG [C82U A120C A145U C150G C169G U176C], the reverse-splicing fitness is 0.00491.
